Among the data in PMC3124363 are Kd values, retold here.

For one test, the target named is cyclin A (Homo sapiens) (UniProt P20248). Conditions: cited from earlier work.
Another test has as its target Cdk2 (Homo sapiens) (UniProt P24941). Particulars: cited from earlier work.
The target in test [1] is Cdk2/cyclin A complex (full length human Cdk2 with truncated human cyclin A, residues 173–432) (human) (UniProt P24941). Description: ITC. On the technique in general: In ITC the heat of successive injections is recorded.

cyclin A (Homo sapiens), sequence (P20248 whole entry): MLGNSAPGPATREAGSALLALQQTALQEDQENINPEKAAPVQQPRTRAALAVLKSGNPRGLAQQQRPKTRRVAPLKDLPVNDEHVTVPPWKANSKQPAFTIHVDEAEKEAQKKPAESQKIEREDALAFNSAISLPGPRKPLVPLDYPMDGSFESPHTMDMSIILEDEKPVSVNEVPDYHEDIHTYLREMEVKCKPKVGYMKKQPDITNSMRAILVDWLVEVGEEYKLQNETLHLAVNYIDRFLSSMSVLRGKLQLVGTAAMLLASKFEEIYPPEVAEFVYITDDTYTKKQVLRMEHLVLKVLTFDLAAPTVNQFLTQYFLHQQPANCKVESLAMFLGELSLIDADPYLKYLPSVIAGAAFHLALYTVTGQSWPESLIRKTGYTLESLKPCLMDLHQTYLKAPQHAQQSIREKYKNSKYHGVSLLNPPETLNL

Usually Kd stands for the equilibrium constant for the complex coming apart. With p27 D1 (from UniProt P46527), in the test with cyclin A (Homo sapiens), the Kd was 25 nM. With p27 D2 (from UniProt P46527), the Kd in the test with Cdk2 (Homo sapiens) was 70 nM. On to “sub-domain D1 of p21 (domain or fragment)”, for which the Kd in test [1] was found to be 61 nM.
